# Measured values from the DeepSol protein solubility set.
# Assay: soluble on expression in E. coli; label from the status in PepcDB or PDB records
row,Sequence,soluble on expression in E. coli
1,SASMAGPDHLFNLRNHFYLGAYQAAINNSEIPNLSQEDIVERDCLVHRAYIALGSYQLVISEIDEAAATPLQAVKLLAMYLSSPENKESTISSLREWLADPTVGNNAIIRLIAGTIFMHEEDYNEALKHTHSGGTMDLHALNVQIFIKMHRSDFAEKQLRVMQQIDEDHTLTQLASAWLNLAVGGSKIQEAYLIFQDFSEKYPMTSLILNGKAVCCMHMGNFEEAETLLLEALNKDAKDPETLANLVVCSLHVGKSSSRYLNQLKLSHPEHVLVKRAASAEDNFERALQSFA,soluble
2,SATQIPSTISILATSDIHGNVLNYDYATGKAPTNTQGLAKVSSYVNSVRASKPNVMLIDDGDTIQGTPLSYYYDKIDTTSEYPLMKIMGAMKYDTWTLGNHEFNYGLPTLNRVISDARKENINVLSANTYNSDNTNFVNPYYIKTFNINGKTVNVGILGLTTKCIPDWEDPSHYAGLHFNDLVDEAKLWVPRMKAAGANVVIVAAHSGEEGAADTIPENQIKAIATNVSGIDAIVAGHAHVTVNDTSLKNPNGKTVPVVEPNKWGTFVSQIDITLDNSGNASTINTQNVKMTDSIPEDPNIVNIIQPYQNKTLDYIST,not soluble
3,SAVFSDPQIAMVGETYKEITTRLGTCGCFATGEVSFENQGRSRVMLRNKGILHVYGEQGTGRFLGAEMMGPNAEHLAHLLAWAHQNKMTVSEMLDMPFYHPVIEEGVRTALRDLNAKLHLGPEMIKHCMDCGPGC,not soluble
4,SCQDLRVLNAIRDYHIGIPLTYTQYKQLTIQVLLDRLVLRRLYPLAIQICEYLRLPEVQGVSRILAHWACYKVQQKDVSDEDVARAINQKLGDTPGVSYSDIAARAYGCGRTELAIKLLEYEPRSGEQVPLLLKMKRSKLALSKAIESGDTDLVFTVLLHLKNELNRGDFFMTLRNQPMALSLYRQFCKHQELDTLKDLYNQDDNHQELGSFHIRASYAAEERIEGRVAALQTAADAFYKAKNEFAAKATEDQMRLLRIQRRLEDELGGRFLDLSLHDTVTTLILGGHNKRAEQLARDFRIPDKRLWWLKLAALADLEDWEELEKFSKSKKSPIGYLPFVEICMKQHNKHEAKKYASRVGPEQKVKALLLVGDVAQAAEVAIEHRNETELSLVLSHCTGATDGAIADKIQRARAQAQKK,soluble
5,SDKLNKITVPASQKLRQLQKMVHDIKNNEGGIMNKIKKLKVKAPPSVPRRDYASESPADEEQQWSDDFDSDYENPDEHSDSEMYVMPAEENADDSYEPPPVEQETRPVHPALPFARGEYIDNRSSQRHSPPFSKTLPSKPSWPSEKARLTSTLPALTALQKPQVPPKPKGLLEDEADYVVPVEDNDENYIHPTESSSPPPEKAPMVNRSTKPNSSTPASPPGTASGRNSGAWETKSPPPAAPSPLPRAGKKPTTPLKTTPVASQQNASSVCEEKPIPAERHRGSSHRQEAVQSPVFPPAQKQIHQKPIPLPRFTEGGNPTVDGPLPSFSSNSTISEQEAGVLCKPWYAGACDRKSAEEALHRSNKDGSFLIRKSSGHDSKQPYTLVVFFNKRVYNIPVRFIEATKQYALGRKKNGEEYFGSVAEIIRNHQHSPLVLIDSQNNTKDSTRLKYAVKVS,soluble
6,SDLGAITKYSALHAKPNGLILQYGTAGFRTKAEHLDHVMFRMGLLAVLRSKQTKSTIGVMVTASHNPEEDNGVKLVDPLGEMLAPSWEEHATCLANAEEQDMQRVLIDISEKEAVNLQQDAFVVIGRDTRPSSEKLSQSVIDGVTVLGGQFHDYGLLTTPQLHYMVYCRNTGGRYGKATIEGYYQKLSKAFVELTKQASCSGDEYRSLKVDCANGIGALKLREMEHYFSQGLSVQLFNDGSKGKLNHLCGADFVKSHQKPPQGMEIKSNERCCSFDGDADRIVYYYHDADGHFHLIDGDKIATLISSFLKELLVEIGESLNIGVVQTAYANGSSTRYLEEVMKVPVYCTKTGVKHLHHKAQEFDIGVYFEANGHGTALFSTAVEMKIKQSAEQLEDKKRKAAKMLENIIDLFNQAAGDAISDMLVIEAILALKGLTVQQWDALYTDLPNRQLKVQVADRRVISTTNAERQAVTPPGLQEAINDLVKKYKLSRAFVRPSGTEDVVRVYAEADSQESADHLAHEVSLAVFQLAGGIGERPQPGF,not soluble
7,SDLVITQELARAESQQDAASLKKAYELIKSANLGKSEFDPSESFSPDLFVLCAEQALKMRQPEVSEDCIQMYFKVKAPITQFLGRAHLCRAQMCAPKSAENLEEFENCVTEYMKAINFAKGEPRYYFLVYNASVLYWQMVRPFLKPGYRHHLIPSLSQIINVLSQTEEEDKEWRAELMLELLECYLQAGRKEEAARFCSTAAPFIKSHVPQKYRQIFSVMVNQRIRNRDVRSNFLKSHCSENCVEIT,soluble
8,SDLWVQKMKTYFNRIDFDKDGAITRMDFESMAERFAKESEMKAEHAKVLMDSLTGVWDNFLTAVAGGKGIDETTFINSMKEMVKNPEAKSVVEGPLPLFFRAVDTNEDNNISRDEYGIFFGMLGLDKTMAPASFDAIDTNNDGLLSLEEFVIAGSDFFMNDGDSTNKVFWGPLV,soluble
9,SDPVDYQAEDATIVQGAVESNHAGYTGTGFVNYDNVAGSSVEWTVTVPSAGTYDVVVRYANGTTTSRPLDFSVNGSISASGVAFGSTGTWPAWTTKTVRVTLAAGVNKIKAVATTANGGPNVDKITL,soluble
10,SEKMSRPLPLNPTFIPPPYGVLRSLLENPLKLPLHHEDAFSKDKDKEKKLDDESNSPTVPQSAFLGPTLWDKTLPYDGDTFQLEYMDLEEFLSENGIPPSPSQHDHSPHPPGLQPASSAAPSVMDLSSRASAPLHPGIPSPNCMQSPIRPGQLLPANRNTPSPIDPDTIQVPVGYEPDPADLALSSIPGQEMFDPRKRKFSEEELKPQPMIKKARKVFIPDDLKDDKYWARRRKNNMAAKRSRDARRLKENQIAIRASFLEKENSALRQEVADLRKELGKCKNILAKYEARHGPL,soluble
11,SEKYNSLSDFLKEFYIPTYVLSAETEEEEEEESRPTPASPVLVFINSKSGGQLGGELILTYRSLLNHNQVFDLDQETPDKVLRRIYLNLERLKDDDFARQIREKLKIIVAGGDGTAGWLLGVVCDLKLSHPPPIATVPLGTGNNLPFAFGWGKKNPGTDRTAVESFLEQVLKAKVMKIDNWHILMRMKTPKEGGSCDPVAPLELPHSLHAFHRVSPTDELNKEGCHTFRGGFWNYFSLGMDAQISYAFHSERKLHPEKFKNQLVNQSTYVKLGCTQGWFCASLFHPASRNIAQLAKVKIATRNGQWQDLHIPHSIRSIVCLNLPSFSGGLNPWGTPNPRKQRDRGLTPPFVDDGLIEVVGFRNAWHGLVLLAPNGHGTRLAQANRIRFEFHKGATDHTFMRMDGEPWKQPLPLDDETVMVEISHLGQVNMLATHDCRSRSVFDPSTPRHQDGAEDYDDNEDDSVAEGEEFRKFGAADTFKIPDEVDISQLS,soluble
12,SELDAKLNKLGVDRIAISPYKQWTRGYMEPGNIGNGYVTGLKVDAGVRDKSDNNVLDGIVSYDRAETKNAYIGQINMTTAS,soluble
13,SELPVRCRNISGTLYKNRLGSGGRGRCIKQGENWYSPTEFEAMAGRASSKDWKRSIRYAGRPLQCLIQDGILNP,soluble
14,SEMIGGDDTDTEMYGALVTAQSLRLRHLHHCRENQCTSVLVKYIQAPVHLVWSLVRRFDQPQKYKPFISRCTVNGDPEIGCLREVNVKSGLPATTSTERLEQLDDEEHILGINIIGGDHRLKNYSSILTVHPEMIDGRSGTMVMESFVVDVPQGNTKDDTCYFVESLIKCNLKSLACVSERLAAQDITNSIATFCNASNGYREKNHTETNL,soluble
15,SERGDQPKRTRNENIFNCLYKNPEATFKLICFPWMGGGSTHFAKWGQDTHDLLEVHSLRLPGRESRVEEPLENDISQLVDEVVCALQPVIQDKPFAFFGHSMGSYIAFRTALGLKENNQPEPLHLFLSSATPVHSKAWHRIPKDDELSEEQISHYLMEFGGTPKHFAEAKEFVKQCSPIIRADLNIVRSCTSNVPSKAVLSCDLTCFVGSEDIAKDMEAWKDVTSGNAKIYQLPGGHFYLLDPANEKLIKNYIIKCLEVSSISNF,soluble
16,SETQSFVVSVAGSDRVGIVHDFSWALKNISANVESSRMACLGGDFAMIVLVSLNAKDGKLIQSALESALPGFQISTRRASSVAERHVSPDTREYELYVEGPDSEGIVEAVTAVLAKKGANIVELETETLPAPFAGFTLFRMGSRVAFPFPLYQEVVTALSRVEEEFGVDIDLEEVVEGEDSEEDDDSPNSPVGRH,soluble
17,SETRSPGLNNMKPQSLQLVLEEQVLALQQQMAENQAASWRKLKNSQEAQQRQATLVRKLQAKVLQYRSWCQELEKRLEATGGPIPQRWENVEEPNLDELLVRLEEEQQRCESLAEVNTQLRLHMEKADVVNKALREDVEKLTVDWK,soluble
18,SFARGLKRKCVGHEEDVEGALAGLKTVSSYSLQRQSLLDMSLVKLQLCHMLVEPNLCRSVLIANTVRQIQEEMTQDGTWRTVAPQAAERAPLDRLVSTEILCRAAWGQEGAHPAPGLGDGHTQGPVSDLCPVTSAQAPRHLQSSAWEMDGPRENRGSFHKSLDQIFETLETKNPSCMEELFSDVDSPYYDLDTVLTGMMGGARPGPCEGLEGLAPATPGPSSSCKSDLGELDHVVEILVET,not soluble
19,SFDRALKPFLQSCHLRMLTDPVDQCVAYHLGRVRESLPELQIEIIADYEVHPNRRPKILAQTAAHVAGAAYYYQRQDVEADPWGNQRISGVCIHPRFGGWFAIRGVVLLPGIEVPDLPPRKPHDCVPTRADRIALLEGFNFHWRDWTYRDAVTPQERYSEEQKAYFSTPPAQRLALLGLAQPSEKPSSPSPDLPFTTPAPKKPGNPSRARSWLSPRVSPPASPGP,soluble
20,SFSSLPLTGENPGAWALVRDNSAKGITAGSGSQQTTYDPTRTEAALTASTTFALRRYDLAGRALYDLDFSKLNPQTPTRDQTGQITFNPFGGFGLSGAAPQQWNEVKNKVPVEVAQDPSNPYRFAVLLVPRSVVYYEQLQRGLGLPQQRTESGQNTSTTGAMFGLKVKNAEADTAKSNEKLQGAEATGSSTTSGSGQSTQRGGSSGDTKVKALKIEVKKKSDSEDNGQLQLEKNDLANAPIKRSEESGQSVQLKADDFGTALSSSGSGGNSNPGSPTPWRPW,soluble
21,SGARRMETDYNPVELSSMSGFEEGSELNGFEGADMKDMQLEAEAVVNDVLFAVNHMFVSKSMPCADDVAYINVETKERNRYCLELTEAGLRVVGYAFDQVEDHLQTPYHETVYSLLDTLSPAYREAFGNALLQRLEALKRDGQS,soluble
22,SGGAVSAGEDNDELIDNLKEAQYIRTELVEQAFRAIDRADYYLEEFKENAYKDLAWKHGNIHLSAPCIYSEVMEALDLQPGLSFLNLGSGTGYLSSMVGLILGPFGVNHGVELHSDVIEYAKQKLDFFIRTSDSFDKFDFCEPSFVTGNCLEISPDCSQYDRVYCGAGVQKEHEEYMKNLLKVGGILVMPLEEKLTKITRTGPSAWETKKILAVSFAPLIQPCHSESGKSRLVQLRSPSFVQGWSVVVLSQLTAASTFQAEAILPSQSPTWLRLQVLATMPN,not soluble
23,SGGGGGILEKLGDICFSLRYVPTAGKLTVVILEAKNLKKMDVGGLSDPYVKIHLMQNGKRLKKKKTTIKKNTLNPYYNESFSFEVPFEQIQKVQVVVTVLDYDKIGKNDAIGKVFVGYNSTGAELRHWSDMLANPRRPIAQWHTLQVEEEVDAMLAVKK,soluble
